The test has as its target T1, mCherry-α-catenin (UniProt P26231 1-906).
T1 construct: Monomeric pool from gel filtration; source: E. coli CK600K or BL21-DE3 Star, purified (Glutathione Sepharose, TEV protease cleavage, gel filtration; the monomeric pool was collected); not shown: GST (from the vector pGEX-2T); mCherry, N-terminal, kept
T1 sequence (looked up): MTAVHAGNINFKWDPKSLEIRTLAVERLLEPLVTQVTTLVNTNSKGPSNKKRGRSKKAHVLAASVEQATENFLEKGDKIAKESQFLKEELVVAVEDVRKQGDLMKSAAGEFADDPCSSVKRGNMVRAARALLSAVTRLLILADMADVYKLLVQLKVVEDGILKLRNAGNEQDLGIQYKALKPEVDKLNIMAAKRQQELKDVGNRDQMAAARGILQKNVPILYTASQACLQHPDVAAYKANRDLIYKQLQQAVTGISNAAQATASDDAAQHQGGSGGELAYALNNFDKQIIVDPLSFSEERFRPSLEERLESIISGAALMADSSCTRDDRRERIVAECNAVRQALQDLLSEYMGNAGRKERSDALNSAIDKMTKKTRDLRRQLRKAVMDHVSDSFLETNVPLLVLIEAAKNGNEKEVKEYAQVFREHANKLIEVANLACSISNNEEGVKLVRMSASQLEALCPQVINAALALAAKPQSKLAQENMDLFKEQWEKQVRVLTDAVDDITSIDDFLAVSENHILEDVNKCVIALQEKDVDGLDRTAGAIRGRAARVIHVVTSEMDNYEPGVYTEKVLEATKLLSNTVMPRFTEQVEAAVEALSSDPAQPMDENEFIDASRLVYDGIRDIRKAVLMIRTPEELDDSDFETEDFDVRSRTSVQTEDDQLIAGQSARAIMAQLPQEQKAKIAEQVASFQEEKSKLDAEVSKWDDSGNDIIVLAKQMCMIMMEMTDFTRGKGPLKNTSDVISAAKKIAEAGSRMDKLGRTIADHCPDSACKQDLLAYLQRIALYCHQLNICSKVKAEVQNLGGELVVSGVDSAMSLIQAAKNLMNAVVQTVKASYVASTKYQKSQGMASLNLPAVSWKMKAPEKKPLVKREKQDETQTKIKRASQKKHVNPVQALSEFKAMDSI
The experiment in a line: droplet co-partition assay (confocal microscopy); purified fluorescent proteins mixed at equimolar 1 μM with mEGFP-β-catenin (Wt or IDRs*) in droplet formation buffer (50 mM Tris-HCl pH 7.5, 125 mM NaCl, 10% glycerol, 1 mM DTT); droplets induced with 10% PEG-8000; fluorescence inside β-catenin droplets. The settings on record: both partners purified.

B1: mEGFP-β-catenin^Wt (natural protein, UniProt P35222 1-781, looked up)
chain: MATQADLMELDMAMEPDRKAAVSHWQQQSYLDSGIHSGATTTAPSLSGKGNPEEEDVDTSQVLYEWEQGFSQSFTQEQVADIDGQYAMTRAQRVRAAMFPETLDEGMQIPSTQFDAAHPTNVQRLAEPSQMLKHAVVNLINYQDDAELATRAIPELTKLLNDEDQVVVNKAAVMVHQLSKKEASRHAIMRSPQMVSAIVRTMQNTNDVETARCTAGTLHNLSHHREGLLAIFKSGGIPALVKMLGSPVDSVLFYAITTLHNLLLHQEGAKMAVRLAGGLQKMVALLNKTNVKFLAITTDCLQILAYGNQESKLIILASGGPQALVNIMRTYTYEKLLWTTSRVLKVLSVCSSNKPAIVEAGGMQALGLHLTDPSQRLVQNCLWTLRNLSDAATKQEGMEGLLGTLVQLLGSDDINVVTCAAGILSNLTCNNYKNKMMVCQVGGIEALVRTVLRAGDREDITEPAICALRHLTSRHQEAEMAQNAVRLHYGLPVVVKLLHPPSHWPLIKATVGLIRNLALCPANHAPLREQGAIPRLVQLLVRAHQDTQRRTSMGGTQQQFVEGVRMEEIVEGCTGALHILARDVHNRIVIRGLNTIPLFVQLLYSPIENIQRVAAGVLCELAQDKEAAEAIEAEGATAPLTELLHSRNEGVATYAAAVLFRMSEDKPQDYKKRLSVELTSSLFRTEPMAWNETADLGLDIGAQGEPLGYRQDDPSYRSFHSGGYGQDALGMDPMMEHEMGGHHPGADYPVDGLPDLGHAQDLMDGLPPGDSNQLAWFDTDL
notes: also called mEGFP-β-cat^Wt; source: E. coli CK600K or BL21-DE3 Star, purified (Glutathione Sepharose, TEV protease cleavage, gel filtration); not shown: GST (from the vector pGEX-2T); mEGFP, N-terminal, kept
Take B1: the binding result is listed as “binds”.

The record behind these values is article PMC12783686, “β-catenin condensation facilitates clustering of the cadherin/catenin complex and formation of nascent cell-cell junctions” (Nature Communications, 2025).
